Measured values: PMC9959916, “A Highly Conserved Region in BRCA2 Suppresses the RAD51-Interaction Activity of BRC Repeats” (Veterinary Sciences, 2023)
Changes are numbered by the printed parent chain.

T1: Gal4 DNA-binding domain-fused cBRC1-HCR-BRC2 A1108G (canine (Canis lupus familiaris), UniProt Q8MKI9 993-1248, A1108G)
T1 construct: canine BRCA2, residues 993-1248 with A1108G, a mutation reported in a canine mammary tumor; source: HeLa, transiently transfected, mammalian two-hybrid fusion
T1 sequence (looked up): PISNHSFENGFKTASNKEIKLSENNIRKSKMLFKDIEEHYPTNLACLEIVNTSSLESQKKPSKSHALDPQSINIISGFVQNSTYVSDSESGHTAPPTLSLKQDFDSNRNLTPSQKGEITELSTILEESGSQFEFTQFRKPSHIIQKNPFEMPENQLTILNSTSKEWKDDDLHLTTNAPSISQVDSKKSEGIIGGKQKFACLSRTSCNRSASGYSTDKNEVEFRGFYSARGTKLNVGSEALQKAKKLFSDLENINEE

T2: FLAG-HA-NLS-fused cBRC1-HCR-BRC2 A1108G (canine (Canis lupus familiaris), UniProt Q8MKI9 993-1248, A1108G)
T2 construct: canine BRCA2, residues 993-1248 with A1108G, a mutation reported in a canine mammary tumor; Very low expression; also called A1108G mutant; source: HeLa, stably expressing, in lysate
T2 sequence (looked up): T1 sequence (looked up)

B1: VP16-fused canine RAD51 (natural protein, UniProt Q8MKI8 1-339, looked up)
chain: MAMQMQLEANADTSVEEESFGPQPISRLEQCGINANDVKKLEEAGFHTVEAVAYAPKKELISIKGISEAKADKILTEAAKLVPMGFTTATEFHQRRSEIIQITTGSKELDKLLQGGIETGSITEMFGEFRTGKTQICHTLAVTCQLPIDRGGGEGKAMYIDTEGTFRPERLLAVAERYGLSGSDVLDNVAYARGFNTDHQTQLLYQASAMMVESRYALLIVDSATALYRTDYSGRGELSARQMHLARFLRMLLRLADEFGVAVVITNQVVAQVDGAAMFAADPKKPIGGNIIAHASTTRLYLRKGRGETRICKIYDSPCLPEAEAMFAINADGVGDAKD
notes: canine RAD51, cloned into the pVP16 vector; also called pVP16-RAD51; source: HeLa, transiently transfected, mammalian two-hybrid fusion
B2: endogenous RAD51 (HeLa cells) (natural protein, human (endogenous in HeLa), UniProt Q06609 1-339, looked up)
chain: B1 chain with S62N, T76A, G194A
notes: RAD51 recombinase, endogenous in HeLa cells; source: endogenous, HeLa lysate
B3: FLAG-HA-NLS-fused cBRC1-ΔHCR-BRC2 (canine BRCA2 993–1248 aa deleted with 1101–1133 aa) (domain or fragment, canine (Canis lupus familiaris), UniProt Q8MKI9 993-1248, looked up)
chain: PISNHSFENGFKTASNKEIKLSENNIRKSKMLFKDIEEHYPTNLACLEIVNTSSLESQKKPSKSHALDPQSINIISGFVQNSTYVSDSESGHTAPPTLSLKQDFDSNRHIIQKNPFEMPENQLTILNSTSKEWKDDDLHLTTNAPSISQVDSKKSEGIIGGKQKFACLSRTSCNRSASGYSTDKNEVEFRGFYSARGTKLNVGSEALQKAKKLFSDLENINEE
notes: canine BRCA2, residues 993-1248 with the HCR (1101-1133) deleted; also called HCR-deleted peptide; source: HeLa, stably expressing, in lysate

Experiments:
Details in all cases: partners not purified
[1] = target: T1, Gal4 DNA-binding domain-fused …; assay: two-hybrid; mammalian two-hybrid in HeLa cells: pM (Gal4 DNA-binding domain)-BRCA2 peptide, pVP16-canine RAD51, pG5-Luc firefly luciferase reporter, normalised to Renilla (pRL-TK); read two days after transfection
[2] = target: T2, FLAG-HA-NLS-fused cBRC1-HCR-BRC2 A1108G; assay: co-IP; lysates of HeLa cells stably expressing FLAG-HA-NLS-fused canine BRCA2 peptides, Benzonase-treated; FLAG M2 affinity agarose at 4 °C overnight; washed with 20 mM Tris-HCl pH 8.0, 150 mM KCl, 2 mM MgCl2, 10% glycerol; blots for endogenous RAD51 and PP2A-C subunit
[3] = target: B2; assay: co-IP; lysates of HeLa cells stably expressing FLAG-HA-NLS-fused canine BRCA2 peptides; 3 μg anti-RAD51 at 4 °C overnight, Protein G Dynabeads; peptides detected with anti-FLAG

B1
fold change against the wild-type peptide [1]: 1.5 fold

B2
fold change against the wild-type peptide [2]: 48 fold

B3
fold change against cBRC1-HCR-BRC2 [3]: ~1.5 fold
